# Patent US20120316071A1 (published 2012)
# T1: rHuman Erythropoietin R/Fc Chimera, CF (R&D Systems Cat#963-ER) (human, UniProt P19235 25-250)
# T1 construct: Bought recombinant protein; also called EPO R; EPO R/Fc; not shown: Fc portion of the purchased chimera
# T1 sequence (looked up): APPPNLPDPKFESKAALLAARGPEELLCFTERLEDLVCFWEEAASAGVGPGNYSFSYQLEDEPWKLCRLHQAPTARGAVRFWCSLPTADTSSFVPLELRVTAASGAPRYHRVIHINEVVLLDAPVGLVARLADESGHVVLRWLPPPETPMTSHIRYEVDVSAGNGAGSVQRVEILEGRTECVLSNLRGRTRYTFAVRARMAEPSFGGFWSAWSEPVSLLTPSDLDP
# T2: rHuman Erythropoietin R/Fc Chimera, CF (R&D Systems Cat#963-ER) (human, UniProt P19235 25-250)
# T2 construct: Bought reagent; also called EPO R; EPO R/Fc; Fc part of the bought chimera not given
# T2 sequence (looked up): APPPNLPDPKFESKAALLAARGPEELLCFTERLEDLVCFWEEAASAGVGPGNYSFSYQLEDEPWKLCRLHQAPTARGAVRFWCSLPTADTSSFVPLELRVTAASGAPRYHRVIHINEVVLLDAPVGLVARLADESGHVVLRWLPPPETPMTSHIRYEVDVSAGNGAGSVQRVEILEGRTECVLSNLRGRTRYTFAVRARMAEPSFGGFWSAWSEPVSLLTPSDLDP
# B1: Fab VH1-46_IGHD6-6*01_IGHJ1*01 S102A/S103P/S104F (APF) & L6_IGKJ1*01 (Fab, V domains shown)
# VH: QVQLVQSGAEVKKPGASVKVSCKASGYTFTSYYMHWVRQAPGQGLEWMGIINPSGGSTSYAQKFQGRVTMTRDTSTSTVYMELSSLRSEDTAVYYCAREEYAPFSAEYFQHWGQGTLVTVSS
# VL: not shown
# notes: Tested as a Fab expressed in E. coli: the heavy chain from Plasmid A (CH1, His6 and Flag tags), the kappa light chain from Plasmid C (CL kappa); also called H:APF & L:wt; APF triple mutant
# B2: Fab VH1-46_IGHD6-6*01_IGHJ1*01 S102A/S103P/S104F A106E & L6_IGKJ1*01 (Fab, V domains shown)
# VH: QVQLVQSGAEVKKPGASVKVSCKASGYTFTSYYMHWVRQAPGQGLEWMGIINPSGGSTSYAQKFQGRVTMTRDTSTSTVYMELSSLRSEDTAVYYCAREEYAPFSEEYFQHWGQGTLVTVSS
# VL: not shown
# notes: Tested as a Fab (CH1 with His6/Flag tags, kappa CL); also called APF A106E
# How the values were obtained:
# [1] = molecular target: T3, rHuman P-Cadherin/Fc Chimera, CF (R&D Systems Cat#861-PC) (human, UniProt P22223 108-654); assay: ECL Multispot (MSD), antigen spotted on plate, 10 nM Fab; blank spot of this well 306
# T3 construct: Bought recombinant protein; not shown: Fc portion of the purchased chimera
# [2] = molecular target: T4, rHuman IGF-1 sR, CF (R&D Systems Cat#391-GR) (human, UniProt P08069 31-932); assay: as above
# T4 construct: Bought recombinant soluble receptor; The column head prints only 'IGF-1'; also called insulin-like growth factor-1 soluble receptor
# [3] = molecular target: T5, rHuman CD44/Fc Chimera, CF (R&D Systems Cat#3660-CD) (human, UniProt P16070 21-220); assay: as above
# T5 construct: Bought recombinant protein; not shown: Fc portion of the purchased chimera
# [4] = molecular target: T6, rHuman ErbB2/Fc Chimera, CF (R&D Systems Cat#1129-ER) (human, UniProt P04626 23-652); assay: as above
# T6 construct: Bought recombinant protein; also called human epidermal growth factor 2 receptor; not shown: Fc portion of the purchased chimera
# [5] = molecular target: T7, rHuman Notch-1/Fc Chimera, CF (R&D Systems Cat#3647-TK) (human, UniProt P46531 19-526); assay: as above
# T7 construct: Bought recombinant protein; the chimera holds only a part of it; not shown: Fc portion of the purchased chimera
# [6] = molecular target: T8, rHuman HGF R/c-MET/Fc Chimera, CF (R&D Systems Cat#358-MT/CF) (human, UniProt P08581 25-932); assay: as above
# T8 construct: Bought recombinant protein; also called HGF R/Fc; hepatocyte growth factor receptor; not shown: Fc portion of the purchased chimera
# [7] = molecular target: T9, rHuman EGF R/Fc Chimera, CF (R&D Systems Cat#344-ER) (human, UniProt P00533 25-645); assay: as above
# T9 construct: Bought recombinant protein; also called epidermal growth factor receptor; not shown: Fc portion of the purchased chimera
# [8] = molecular target: T1, rHuman Erythropoietin R/Fc Chimera, CF …; assay: as above
# [9] = molecular target: T3, rHuman P-Cadherin/Fc Chimera, CF (R&D …); assay: ECL Multispot (MSD), antigen spotted on plate, 10 nM Fab; blank spot of this well 214
# [10] = molecular target: T4, rHuman IGF-1 sR, CF (R&D Systems …); assay: as above
# [11] = molecular target: T5, rHuman CD44/Fc Chimera, CF (R&D Systems …); assay: as above
# [12] = molecular target: T6, rHuman ErbB2/Fc Chimera, CF (R&D …); assay: as above
# [13] = molecular target: T7, rHuman Notch-1/Fc Chimera, CF (R&D …); assay: as above
# [14] = molecular target: T8, rHuman HGF R/c-MET/Fc Chimera, CF (R&D …); assay: as above
# [15] = molecular target: T9, rHuman EGF R/Fc Chimera, CF (R&D …); assay: as above
# [16] = molecular target: T1, rHuman Erythropoietin R/Fc Chimera, CF …; assay: as above
# [17] = molecular target: T10, rHuman HGF R/c-MET/Fc Chimera, CF (R&D Systems Cat#358-MT/CF) (human, UniProt P08581 25-932); assay: ECL Multispot (MSD), 10 nM Fab; blank 219
# T10 construct: Bought reagent; also called HGF R/Fc; hepatocyte growth factor receptor; Fc part of the bought chimera not given
# [18] = molecular target: T11, rHuman IGF-1 sR, CF (R&D Systems Cat#391-GR) (human, UniProt P08069 31-932); assay: ECL Multispot (MSD), 10 nM Fab; blank 219
# T11 construct: Bought soluble receptor; also called insulin-like growth factor-1 soluble receptor
# [19] = molecular target: T12, rHuman P-Cadherin/Fc Chimera, CF (R&D Systems Cat#861-PC) (human, UniProt P22223 108-654); assay: ECL Multispot (MSD), 10 nM Fab; blank 219
# T12 construct: Bought reagent; Fc part of the bought chimera not given
# [20] = molecular target: T2, rHuman Erythropoietin R/Fc Chimera, CF …; assay: ECL Multispot (MSD), 10 nM Fab; blank 219
# [21] = molecular target: T13, rHuman ErbB2/Fc Chimera, CF (R&D Systems Cat#1129-ER) (human, UniProt P04626 23-652); assay: ECL Multispot (MSD), 10 nM Fab; blank 219
# T13 construct: Bought reagent; also called human epidermal growth factor 2 receptor; Fc part of the bought chimera not given
# [22] = molecular target: T14, rHuman Notch-1/Fc Chimera, CF (R&D Systems Cat#3647-TK) (human, UniProt P46531 19-526); assay: ECL Multispot (MSD), 10 nM Fab; blank 219
# T14 construct: Bought reagent; Fc part of the bought chimera not given
# [23] = molecular target: T15, rHuman EGF R/Fc Chimera, CF (R&D Systems Cat#344-ER) (human, UniProt P00533 25-645); assay: ECL Multispot (MSD), 10 nM Fab; blank 219
# T15 construct: Bought reagent; also called epidermal growth factor receptor; Fc part of the bought chimera not given
# [24] = molecular target: T16, rHuman CD44/Fc Chimera, CF (R&D Systems Cat#3660-CD) (human, UniProt P16070 21-220); assay: ECL Multispot (MSD), 10 nM Fab; blank 219
# T16 construct: Bought reagent; Fc part of the bought chimera not given
binder,measurement,setting,value
B1,ECL signal,[1],422
same,ECL signal,[2],207
same,ECL signal,[3],262
same,ECL signal,[4],378
same,ECL signal,[5],370
same,ECL signal,[6],317
same,ECL signal,[7],277
same,ECL signal,[8],312
same,ECL signal,[9],152
same,ECL signal,[10],190
same,ECL signal,[11],199
same,ECL signal,[12],202
same,ECL signal,[13],189
same,ECL signal,[14],190
same,ECL signal,[15],138
same,ECL signal,[16],179
B2,ECL signal,[17],212
same,ECL signal,[18],312
same,ECL signal,[19],308
same,ECL signal,[20],204
same,ECL signal,[21],189
same,ECL signal,[22],156
same,ECL signal,[23],226
same,ECL signal,[24],192
